For data set [1] the following is noted: cited from earlier work.
Data set [2] is classed as physicochemical. The note with it: N = 90/x, ~90 DSPE-PEG2000 monomers per SSM, x = lipid molecules at saturation.

On to Human neuropeptide Y [NPY], for which the half-life in vivo result in data set [1] is given as “minutes”. Further, in data set [2], the “maximal number of NPY molecules that could self-associate with one SSM” value was “three”.

Values taken from article PMC3100534 (Nanomedicine : nanotechnology, biology, and medicine, 2011).
